Laboratory results as given in patent US20230398224A1 (Novartis, published 2023).
Positions of bridges follow the written chain, without caps; N, C: chain ends. Non-standard residues stand in square brackets, D forms with d. Groups on a side chain read outwards from the residue. int‑CC7 = mannose-6-phosphonate M6PR ligand; tri‑GalNAc ASGPR ligand = not defined here; Bip = N[C@@H](Cc1ccc(-c2ccccc2)cc1)C(=O)O; NMeF = CN[C@@H](Cc1ccccc1)C(=O)O; Tic = O=C(O)[C@@H]1Cc2ccccc2CN1; int‑CC6 = not defined here; NMeA = CN[C@@H](C)C(=O)O; Sar = CNCC(=O)O

T1: Purified FHR3 with C-terminal biotinylated Avitag (human, UniProt Q02985 19-330, biotin on the C-terminal Avitag)
T1 construct: Immobilised on a NeutrAvidin NLC chip for SPR; also called complement factor H-related protein 3; hFHR3; not shown: C-terminal biotinylated Avitag
T1 sequence (looked up): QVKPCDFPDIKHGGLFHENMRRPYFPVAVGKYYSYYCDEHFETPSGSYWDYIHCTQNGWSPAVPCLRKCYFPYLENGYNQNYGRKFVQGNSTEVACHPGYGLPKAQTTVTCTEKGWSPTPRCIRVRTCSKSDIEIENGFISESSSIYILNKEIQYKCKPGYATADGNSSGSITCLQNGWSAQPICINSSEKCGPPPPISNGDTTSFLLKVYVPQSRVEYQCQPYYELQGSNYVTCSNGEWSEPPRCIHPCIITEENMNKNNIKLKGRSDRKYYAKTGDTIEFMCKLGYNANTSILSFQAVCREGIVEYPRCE

B1: Cyclic peptide compound (C12) (peptide)
peptide: {CH2CO}-FR[NMeF]SKNY[Sar]RD[Tic]N[NMeF]CG-NH2
modifications: thioether N-14; also: classes: D-residues
notes: Synthetic cyclic peptide with non-natural residues; also called FHR3 receptor ligand compound (C12)
B2: Cyclic peptide compound (C14) (peptide)
peptide: {CH2CO}-FR[NMeF]SVNYKRS[Tic]N[NMeF]CG-NH2
modifications: thioether N-14
SMILES: CC(C)[C@@H]1NC(=O)[C@H](CO)NC(=O)[C@H](Cc2ccccc2)N(C)C(=O)[C@H](CCCNC(=N)N)NC(=O)[C@H](Cc2ccccc2)NC(=O)CSC[C@@H](C(=O)NCC(N)=O)NC(=O)[C@H](Cc2ccccc2)N(C)C(=O)[C@H](CC(N)=O)NC(=O)[C@@H]2Cc3ccccc3CN2C(=O)[C@H](CO)NC(=O)[C@H](CCCNC(=N)N)NC(=O)[C@H](CCCCN)NC(=O)[C@H](Cc2ccc(O)cc2)NC(=O)[C@H](CC(N)=O)NC1=O
notes: Synthetic cyclic peptide; also called FHR3 receptor ligand compound (C14)
B3: Cyclic peptide compound (C13) (peptide)
peptide: {CH2CO}-FK[NMeA]SLHW[NMeA]RPDRCG-NH2
modifications: thioether N-13
SMILES: CC(C)C[C@@H]1NC(=O)[C@H](CO)NC(=O)[C@H](C)N(C)C(=O)[C@H](CCCCN)NC(=O)[C@H](Cc2ccccc2)NC(=O)CSC[C@@H](C(=O)NCC(N)=O)NC(=O)[C@H](CCCNC(=N)N)NC(=O)[C@H](CC(=O)O)NC(=O)[C@@H]2CCCN2C(=O)[C@H](CCCNC(=N)N)NC(=O)[C@H](C)N(C)C(=O)[C@H](Cc2c[nH]c3ccccc23)NC(=O)[C@H](Cc2c[nH]cn2)NC1=O
notes: Synthetic cyclic peptide; also called FHR3 receptor ligand compound (C13)
B4: Cyclic peptide compound (C16) (peptide)
peptide: {CH2CO}-FR[NMeF]SVNY[Sar]RK[Tic]N[NMeF]CG-NH2
modifications: thioether N-14
SMILES: CC(C)[C@@H]1NC(=O)[C@H](CO)NC(=O)[C@H](Cc2ccccc2)N(C)C(=O)[C@H](CCCNC(=N)N)NC(=O)[C@H](Cc2ccccc2)NC(=O)CSC[C@@H](C(=O)NCC(N)=O)NC(=O)[C@H](Cc2ccccc2)N(C)C(=O)[C@H](CC(N)=O)NC(=O)[C@@H]2Cc3ccccc3CN2C(=O)[C@H](CCCCN)NC(=O)[C@H](CCCNC(=N)N)NC(=O)CN(C)C(=O)[C@H](Cc2ccc(O)cc2)NC(=O)[C@H](CC(N)=O)NC1=O
notes: Synthetic cyclic peptide; also called FHR3 receptor ligand compound (C16)
B5: Cyclic peptide compound (C15) (peptide)
peptide: {CH2CO}-F[NMeF][NMeA]SLHW[NMeA]RKDRCG-NH2
modifications: thioether N-13
notes: also called FHR3 receptor ligand compound (C15)
B6: Bifunctional compound (BFC-2) (other)
peptide: {CH2CO}-FVPTT[Bip][NMeA][Bip][NMeA]EAPCGK([4‑formylbenzoyl-int‑CC6])-NH2
modifications: thioether N-13; reading uncertain; also: 4-formylbenzoyl joined to int-CC6 as oxime
B7: Bifunctional compound (BFC-4) (other)
peptide: {CH2CO}-FVPTT[Bip][NMeA][Bip][NMeA]EAPCGK-NH2
modifications: thioether N-13; not fully specified (residue 15); also: int-DD2 linker joined by two oximes to int-CC7
B8: Cyclic peptide (C5) (peptide)
peptide: {CH2CO}-FVPTT[Bip][NMeA][Bip][NMeA]EAPCGK(4‑oxopentanoyl)-NH2
modifications: thioether N-13
notes: also called PCSK9 ligand (C5); PCSK9 receptor ligand compound (C5)
B9: Bifunctional compound (BFC-8) (other)
peptide: {CH2CO}-FVPTT[Bip][NMeA][Bip][NMeA]EAPCGK([Lys(4-oxopentanoyl)-int‑CC7])-NH2
modifications: thioether N-13; not fully specified; also: further groups not given here
notes: BFC-8 and BFC-9 come from the same reaction of int-DD6 with int-CC7
B10: Bifunctional compound (BFC-9) (other)
peptide: {CH2CO}-FVPTT[Bip][NMeA][Bip][NMeA]EAPCGK([Lys(4-oxopentanoyl)-int‑CC7])-NH2
modifications: thioether N-13; not fully specified; also: further groups not given here
notes: as for B9

biological target: T1, Purified FHR3 with C-terminal …; assay: SPR, ProteOn XPR36; biotinylated FHR3 on NeutrAvidin NLC chip
Experimental: SPR was used to obtain the binding data for FHR3 receptor ligands compounds (C12), (C13), (C14), (C15) and (C16), either alone or as part of the bifunctional compounds (BFC13), (BFC14), (BFC15), (BFC16) and (BFC17), respectively.
(§1) SPR Binding experiments were performed on a Proteon XPR36 instrument (Bio-Rad Laboratories). Purified FHR3 with C-terminal biotinylated Avitag was used for the assay. Biotinylated FHR3 was incubated with fivefold molar excess of bifunctional compounds (BFC13), (BFC14), (BFC15), (BFC16) or (BFC17), or compounds (C12), (C13), (C14), (C15) or (C16), and immobilized onto a Neutravidin coated sensor chip. (NLC chip, Bio-Rad Laboratories, Inc). After conditioning the chip by injecting running buffer (20 mM Tris pH7.5, 300 mM NaCl, 25 mM CaCl₂, 2 mM betamercaptoethanol, 2% DMSO and 0.05% Tween-20) at a flow rate of 0.1 mL/min for 240 s, FHR3 was injected at a protein concentration of 0.02 mg/ml in running buffer with fivefold molar excess of bifunctional compound and a flow rate of 0.03 mL/min followed by 4 washes with running buffer with 1 μM of bifunctional compound (0.1 mL/min for 60 seconds each).

Binder	Kd [nM]
B1	8
B2	162
B3	48
{CH2CO}-FK([dPEG9 diacid-tri‑GalNAc ASGPR ligand])[NMeA]SLHW[NMeA]RPDRCG-NH2 (other, thioether N-13; reading uncertain) [Bifunctional compound (BFC-14)]	80
{CH2CO}-FR[NMeF]SVNY[Sar]RK([dPEG9 diacid-tri‑GalNAc ASGPR ligand])[Tic]N[NMeF]CG-NH2 (other, thioether N-14; reading uncertain) [Bifunctional compound (BFC-17)]	55
B4	13
B5	15

biological target: T2, M6PR; assay: SPR, no details given; binding is through the mannose-6-phosphate moiety of the conjugate
T2 construct: also called mannose-6-phosphate receptor; M6P receptor

Binder	Kd [nM]
B6	7.19

biological target: T3, Purified recombinant full length human PCSK9 with C-terminal biotinylated Avitag (human, UniProt Q8NBP7 31-692, biotin on the C-terminal Avitag); assay: SPR, ProteOn XPR36; biotinylated human PCSK9 on NeutrAvidin NLC chip
T3 construct: also called hPCSK9; proprotein convertase subtilisin/kexin type 9; not shown: C-terminal biotinylated Avitag
T3 sequence (Q8NBP7 31-692): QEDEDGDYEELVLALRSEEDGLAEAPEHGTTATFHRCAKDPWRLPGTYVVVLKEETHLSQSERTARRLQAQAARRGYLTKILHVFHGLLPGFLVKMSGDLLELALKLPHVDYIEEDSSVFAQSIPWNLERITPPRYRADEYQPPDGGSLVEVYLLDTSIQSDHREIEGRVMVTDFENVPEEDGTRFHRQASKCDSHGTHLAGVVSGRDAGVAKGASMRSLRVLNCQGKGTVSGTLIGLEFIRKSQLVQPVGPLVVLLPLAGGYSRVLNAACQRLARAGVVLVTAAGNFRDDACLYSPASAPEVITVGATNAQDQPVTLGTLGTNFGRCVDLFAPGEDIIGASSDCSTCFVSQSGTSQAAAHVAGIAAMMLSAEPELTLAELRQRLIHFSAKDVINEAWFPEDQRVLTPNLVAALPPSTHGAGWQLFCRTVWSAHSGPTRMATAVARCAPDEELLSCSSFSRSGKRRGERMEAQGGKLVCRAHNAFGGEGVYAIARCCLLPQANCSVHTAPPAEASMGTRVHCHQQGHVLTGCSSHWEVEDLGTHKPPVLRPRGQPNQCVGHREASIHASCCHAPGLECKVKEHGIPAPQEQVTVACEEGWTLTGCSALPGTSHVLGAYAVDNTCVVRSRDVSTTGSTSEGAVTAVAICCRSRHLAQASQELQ
Experimental: SPR was used to obtain the binding data for PCSK9 receptor ligand compound (C5), either alone or as part of the bifunctional compounds (BFC1), respectively.
as §1, with “Purified recombinant full length human PCSK9” for “Purified FHR3”, “Biotinylated human PCSK9” for “Biotinylated FHR3”, “bifunctional compound (BFC1)” for “bifunctional compounds (BFC13), (BFC14), (BFC15), (BFC16)”, “or compound (C₅),” for “or (BFC17), or compounds (C12), (C13), (C14), (C15) or (C16),”, “s, PCSK9 protein” for “s, FHR3”

Binder	Kd [nM]
B6	9.2
B7	4.1
B8	1.2

biological target: T2, M6PR; assay: SPR, no details given; binding is through the mannose phosphonate moiety of the conjugate

Binder	Kd [nM]
B9	480
B10	170
B7	110
